Results: patent US20260042834A1, “ANTI-CORTICOTROPIN-RELEASING HORMONE ANTIBODIES AND POLYCYSTIC OVARY SYNDROME” (HBM ALPHA THERAPEUTICS, INC., priority 2022, published 2026)
Substitutions are numbered along the chain they refer to.

T1: biotinylated CRH (Homo sapiens, UniProt P06850)
T1 construct: purchased GL Biochem 784751
T1 sequence (P06850 154-194): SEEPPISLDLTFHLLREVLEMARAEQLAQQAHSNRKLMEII

B1: PR302309: Series 7 anti-CRH mAb from immunized wildtype mice; VH SEQ ID NO: 260, VL SEQ ID NO: 317 (antibody, V domains shown)
VH: QIQLVQSGPELKKPGETVKISCKASGYTFTNYGMNWVKQAPGKVLKWMGWINTYTGEPIYTDDFKGRFAFSLETSASTAYLQINNLKNEDTATYFCSRSTMITTGGVFAYWGQGTLVTVSA
VL: DVLMAQTPLSLPVSLGDQASISCRSSQTIVHSDGNTYLEWYLQKPGQSPKLLIYKVSNRFSGVPDRFSGSGSGTDFTLKISRVEAEDLGVYYCFQGSHVPWTFGGGTKLEIK
modifications: PR302309-1 VH, PR302309-2 VH, PR302309-3 VH, PR302309-4 VH,PR302309-5 VH, PR302309-6 VH, PR302309 VH; PR302309-13 VL, PR302309-14 VL, PR302309-15 VL, PR302309-16 VL,PR302309 VL
B2: PR302341-19: humanized variant of Series 10 mAb PR302341; VH SEQ ID NO: 282, VL SEQ ID NO: 340 (antibody, V domains shown)
VH: QVQLVQSGAEVKKPGASVKVSCKASGYTFTDYFMKWVRQAPGQGLEWMGVINPNNGDIFYNQKFKGRVTMTRDTSTSTVYMELSSLRSEDTAVYYCARGTDRALFAYWGQGTLVTVSS
VL: DVVMTQSPLSLPVTLGQPASISCRSGQSIVHSDGNTYLEWYQQRPGQSPRLLIYKVSNRFSGVPDRFSGSGSGTDFTLKISRVEAEDLGVYYCFQGSHIPWTFGGGTKVEIK
modifications: PR302341-13 VH, PR302341-19 VH; PR302341-19 VL, PR302341-20 VL, PR302341-21 VL, PR302341-22 VL,PR302341-23 VL, PR302341-28 VL, PR302341-29 VL, PR302341-2 VL,PR302341-41 VL, PR302341-55 VL, PR302341-56 VL, PR302341-57 VL,PR302341-
B3: PR302341-24: humanized variant of Series 10 mAb PR302341; VH SEQ ID NO: 284, VL SEQ ID NO: 336 (antibody, V domains shown)
VH: B2 VH with G44R, M70I, R72V, T74K, T76A, V79A
VL: B2 VL with S7T, L11S, S48P, S72A
modifications: PR302341-16 VH, PR302341-21 VH, PR302341-24 VH, PR302341-25 VH; PR302341-10 VL, PR302341-24 VL, PR302341-26 VL, PR302341-43 VL,PR302341-44 VL, PR302341-45 VL, PR302341-4 VL
B4: PR302341-23: humanized variant of Series 10 mAb PR302341; VH SEQ ID NO: 286, VL SEQ ID NO: 340 (antibody, V domains shown)
VH: B2 VH with R72V, T74K, T76I, V79A, S85R, E89D
VL: B2 VL
modifications: PR302341-18 VH, PR302341-23 VH, PR302341-26 VH, PR302341-27 VH,PR302341-30 VH, PR302341-31 VH, PR302341-42 VH; PR302341-19 VL, PR302341-20 VL, PR302341-21 VL, PR302341-22 VL,PR302341-23 VL, PR302341-28 VL, PR302341-29 VL, PR302341-2 VL,PR302341-41 VL, PR302341-55 VL, PR302341-56 VL, PR302341-57 VL,PR302341-
B5: PR302341-21: humanized variant of Series 10 mAb PR302341; VH SEQ ID NO: 284, VL SEQ ID NO: 340 (antibody, V domains shown)
VH: B2 VH with G44R, M70I, R72V, T74K, T76A, V79A
VL: B2 VL
modifications: PR302341-16 VH, PR302341-21 VH, PR302341-24 VH, PR302341-25 VH; PR302341-19 VL, PR302341-20 VL, PR302341-21 VL, PR302341-22 VL,PR302341-23 VL, PR302341-28 VL, PR302341-29 VL, PR302341-2 VL,PR302341-41 VL, PR302341-55 VL, PR302341-56 VL, PR302341-57 VL,PR302341-
B6: PR302341-20: humanized variant of Series 10 mAb PR302341; VH SEQ ID NO: 283, VL SEQ ID NO: 340 (antibody, V domains shown)
VH: B2 VH with G44R, M70I, T76A, V79A
VL: B2 VL
modifications: PR302341-15 VH, PR302341-20 VH, PR302341-70 VH, PR302341-71 VH,PR302341-72 VH; PR302341-19 VL, PR302341-20 VL, PR302341-21 VL, PR302341-22 VL,PR302341-23 VL, PR302341-28 VL, PR302341-29 VL, PR302341-2 VL,PR302341-41 VL, PR302341-55 VL, PR302341-56 VL, PR302341-57 VL,PR302341-
B7: PR302334-11: humanized variant of Series 9 mAb PR302334; VH SEQ ID NO: 273, VL SEQ ID NO: 329 (antibody, V domains shown)
VH: EVQLVESGGGLVQPGGSLRLSCAASGFTFSTYAMSWVRQAPGKGLEWVASIRSGGTTYYPDSVKGRFTISRDNSKNTLYLQMNSLRAEDTAVYYCTRGIDWGQGTTVTVSS
VL: DIQMTQSSLSASVSLGDRVTITCKASQSVNNDVAWYQQKPGKAPRLLIYYASNRYTGVPSRFSGSGSGTDFTFTISSLQPEDIATYYCQQDYSSWTFGGGTKVEIK
modifications: PR302334-10 VH, PR302334-11 VH, PR302334-12 VH, PR302334-14 VH,PR302334-7 VH, PR302334-8 VH, PR302334-9 VH; PR302334-11 VL, PR302334-5 VL
B8: PR302334-25: humanized variant of Series 9 mAb PR302334; VH SEQ ID NO: 275, VL SEQ ID NO: 330 (antibody, V domains shown)
VH: B7 VH with Q13K, S74A, T77S
VL: B7 VL with I83L, Y87F
modifications: PR302334-16 VH, PR302334-24 VH, PR302334-25 VH; PR302334-12 VL, PR302334-25 VL, PR302334-27 VL, PR302334-6 VL

Columns and labels:
biotinylated CRH = target: T1, biotinylated CRH; experiment: Affinity determination with Octet; assay type: binding
Experimental: Octet® Red 96e was used for affinity measurement. Octet® running buffer was prepared by diluting kinetics buffer 10× (Fortebio, Cat #18-1105) in PBS according to the manufacturer's instructions. Two columns of SA sensors (Fortebio, Cat #18-5019) were hydrated in running buffer for 10 mins, one for ligand capturing and the other for reference. Antibodies were 2-fold diluted and added into a 96-well plate. 30 nM biotinylated CRH (GL Biochem, Cat #784751) was captured by the first column of SA sensors for 20 seconds, while reference sensors were dipped into buffer wells. After a 60-second baseline step, sensors were dipped into analyte and buffer wells successively, with the association and dissociation time of 180 seconds and 800 seconds, respectively. Sensors were regenerated in glycine pH1.5 (Cytiva, Cat #BR-1003-54) before the next cycle. […] Signals of reference wells and reference sensors were subtracted by selecting “Double reference” before data fitting.

human CRHR2 = experiment: CRH-induced luciferase reporter blocking assay, CHO-CRE-hCRHR2 cells; assay type: cell-based
Experimental: (§1) To create CHO-CRE-hCRHR1, -hCRHR2, -mCRHR1, and -mCRHR2 reporter cell lines, pcDNA3.1-hCRHR1, -hCRHR2, -mCRHR1, and -mCRHR2 were introduced into CHO-CRE cells established above by electroporation as described above. Selection antibiotics hygromycin at 500 μg/ml and G418 at 1,000 μg/ml were employed. Individual established stable cell lines were characterized by both CRH and forskolin stimulation.
Activated GPCR proteins increase production of the intracellular cAMP. CHO-CRE-human CRHR1 stable clone 11 was generated by introduction of pcDNA3.1-human CRHR1 under the selection of G418 and hygromycin. Human CRHR1 expression in CHO-CRE-hCRHR1 Clone 11 was confirmed by flow cytometry (data not shown). To further validate that the cell line was functional, CHO-CRE-hCRHR1 Clone 11 cells were treated with forskolin and CRH peptide. […] Subsequently CHO-CRE-hCRHR2 Clone 32, -mCRHR1 Clone 22, and -mCRHR2 Clone 8 cell lines were established using similar methodology and validated with CRH treatment (data not shown).
Blocking CRHR1 by small molecules or neutralization of CRH peptide can reduce luciferase expression if the CRH-CRHR1 system works in CHO-CRE-hCRHR1 cells. Antalarmin, a small molecule CRHR1 antagonist, blocked CRH-mediated luciferase expression in CHO-CRE-hCRHR1 Clone 11 (data not shown). Furthermore, sheep anti-CRH polyclonal antibody reduced CRH-mediated luciferase expression in these cells (data not shown). Likewise, sheep anti-CRH polyclonal antibody blocked CRH-mediated luciferase expression in CHO-CRE-hCRHR2, CHO-CRE-mCRHR1, and CHO-CRE-mCRHR2 cells (data not shown).
(§2) Cells were digested by trypsin-EDTA (Life technologies, Cat #:12604-013), centrifuged at 1,000 rpm for 5 min, resuspended in growth medium, counted using a cell counter, seeded at a concentration of 5,000 cells per 100 μl in 96-well flat plates, and incubated overnight. 50 μl of 4× serially diluted antibodies was added (8 points, 1/4 diluted by growth medium) to plates containing CHO-CRE-hCRHR1 cells, and 50 μl of 4×CRH (4× is 2 nM, final is 0.5 nM) was added. Similarly, 4×CRH (4× is 0.4 nM, final is 0.1 nM) was added to CHO-CRE-hCRHR2 cells and CHO-CRE-mCRHR1 cells, and 4×CRH (4× is 20 nM, final is 5 nM) was added to CHO-CRE-mCRHR2 cells. Next, plates were incubated 4-6 hours at 37° C. in a CO2 incubator. 60 μl of culture medium was removed, to which was added 60 μl of Bio-Glo luciferase, followed by incubation for 10 min at RT. Plates were read in a luciferase plate reader (EnVision, PerkinElmer).

mouse CRHR2 = experiment: CRH-induced luciferase reporter blocking assay, CHO-CRE-mCRHR2 cells; assay type: cell-based
Experimental: as §1, with “stimulation. […]” for “stimulation.”
as §2

[1] = CHO-CRE-hCRHR2 cells, 0.1 nM CRH

kdis (biotinylated CRH) [s⁻¹] | kon (biotinylated CRH) [M⁻¹ s⁻¹] | IC50 (human CRHR2; [1]) [nM] | IC50 (mouse CRHR2; CHO-CRE-mCRHR2 cells, 5 nM CRH) [nM] | IC50 (human CRHR2; Table 9, hCRHR2) [nM] | IC50 (mouse CRHR2; Table 9, mCrhr2) [nM] | Molecule
4.03e-06 | 263000 |  |  |  |  | B1
 |  | 0.178 | 0.673 |  |  | B2
 |  | 0.099 | ~0.457 |  |  | B3
 |  | 0.127 | 0.501 | 1.38 | 1.37 | B4
 |  | 0.272 | 0.633 |  |  | B5
 |  | 0.263 | 0.602 | 1.21 | 1.98 | B6
<1e-07 | 684000 |  |  |  |  | B7
<1e-07 | 285000 |  |  |  |  | B8
